In publication PMC4038614:

What was measured:
[1] = molecular target: Ly49H (B6 allele), endogenous on splenic NK cells (mouse (endogenous in splenic NK cells)) (UniProt Q60682)
[2] = molecular target: Ly49H^B6 expressed on BWZ.36 cells (BWZ-Ly49H) (mouse (B6)) (UniProt Q60682); assay: flow cytometry on cells; dissociation: BWZ transfectants labelled with saturating m157-Fc at 4°C, washed, incubated at 37°C for 5 to 90 min with excess anti-m157 antibody 6H121 to prevent re-binding; MFI at 0 min = 100%
[3] = molecular target: Ly49C^B6 expressed on BWZ.36 cells (BWZ-Ly49C) (mouse (B6)) (UniProt Q64329); assay: as above
[4] = molecular target: Ly49H^B6 expressed on BWZ.36 cells (BWZ-Ly49H) (mouse (B6)) (UniProt Q60682); assay: flow cytometry on cells; association time course: BWZ transfectants with saturating m157-Fc for 30 sec/1 min to 40 min at 4°C; MFI at 40 min = 100%
[5] = molecular target: Ly49C^B6 expressed on BWZ.36 cells (BWZ-Ly49C) (mouse (B6)) (UniProt Q64329); assay: as above

Sequence of UniProt Q64329 (Q64329 whole entry): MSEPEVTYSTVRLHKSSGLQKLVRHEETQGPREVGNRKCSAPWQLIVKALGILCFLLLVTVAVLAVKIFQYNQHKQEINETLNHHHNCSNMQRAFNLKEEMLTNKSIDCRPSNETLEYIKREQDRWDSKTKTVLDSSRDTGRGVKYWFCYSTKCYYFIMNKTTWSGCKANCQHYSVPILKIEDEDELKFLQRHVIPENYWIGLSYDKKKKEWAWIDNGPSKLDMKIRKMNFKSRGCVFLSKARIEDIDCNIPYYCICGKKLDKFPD

“m157^G1F-Fc soluble fusion protein (Fc fusion)” gave an IFN-γ production of Ly49H^+,C^- B6 NK cells exposed to RMA cells expressing m157^G1F; abolished by blocking anti-Ly49H 3D10 [1] of 15 % IFN-γ^+, a degranulation (LAMP1^+) of Ly49H^+,C^- B6 NK cells exposed to RMA cells expressing m157^G1F; abolished by blocking anti-Ly49H 3D10 [1] of 40 % LAMP1^+ and a percent still bound after 90 min [2] of over 50%. It also gave a time to 50% dissociation [3] of 20 min, a time to 50% of maximal binding [4] of 7 min and a time to 50% of maximal binding [5] of 5 min.
